Data on 8 molecules can be found in patent publication US20120253017A1.

Assay [1] concerns the target mouse c-kit (recombinant, on BIAcore chip) (mouse) (UniProt P05532). Description: BIAcore.
Assay [2] has the same target. The assay can be described thus: BIAcore 2000, 1 uM dAb. (SPR reads the build-up and loss of mass on a sensor chip optically.)
For assay [3] the target is unchanged. Description: BIAcore, c-kit on SA chip.
Assay [4] shares this target. The assay can be described thus: BIAcore, dAb at 1000 and 500 nM.
For assay [5] the target is unchanged. Description: BIAcore, approximate kinetic constants.
Assay [6] has as its target T1, Mouse cKIT ECD-Fc (mouse; human) (UniProt P05532).
T1 sequence (looked up): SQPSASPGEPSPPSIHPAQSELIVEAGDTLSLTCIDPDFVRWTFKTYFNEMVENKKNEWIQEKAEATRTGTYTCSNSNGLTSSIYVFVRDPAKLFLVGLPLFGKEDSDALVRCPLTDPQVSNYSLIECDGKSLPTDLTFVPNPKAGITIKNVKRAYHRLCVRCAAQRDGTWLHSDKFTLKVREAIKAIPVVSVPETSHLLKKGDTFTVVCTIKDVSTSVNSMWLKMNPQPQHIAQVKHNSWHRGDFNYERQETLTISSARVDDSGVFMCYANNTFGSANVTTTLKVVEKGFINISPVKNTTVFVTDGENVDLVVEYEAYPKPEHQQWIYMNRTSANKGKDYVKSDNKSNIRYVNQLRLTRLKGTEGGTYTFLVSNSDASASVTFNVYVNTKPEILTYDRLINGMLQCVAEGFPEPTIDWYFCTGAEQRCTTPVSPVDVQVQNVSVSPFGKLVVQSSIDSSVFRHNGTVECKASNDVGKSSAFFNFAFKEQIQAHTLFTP
Description: BIAcore.

In assay [7] the target is human c-kit (recombinant, on BIAcore chip or beads) (human) (UniProt P10721). Description: BIAcore.
Sequence of human c-kit (recombinant, on BIAcore chip or beads) (human) (P10721 26-524): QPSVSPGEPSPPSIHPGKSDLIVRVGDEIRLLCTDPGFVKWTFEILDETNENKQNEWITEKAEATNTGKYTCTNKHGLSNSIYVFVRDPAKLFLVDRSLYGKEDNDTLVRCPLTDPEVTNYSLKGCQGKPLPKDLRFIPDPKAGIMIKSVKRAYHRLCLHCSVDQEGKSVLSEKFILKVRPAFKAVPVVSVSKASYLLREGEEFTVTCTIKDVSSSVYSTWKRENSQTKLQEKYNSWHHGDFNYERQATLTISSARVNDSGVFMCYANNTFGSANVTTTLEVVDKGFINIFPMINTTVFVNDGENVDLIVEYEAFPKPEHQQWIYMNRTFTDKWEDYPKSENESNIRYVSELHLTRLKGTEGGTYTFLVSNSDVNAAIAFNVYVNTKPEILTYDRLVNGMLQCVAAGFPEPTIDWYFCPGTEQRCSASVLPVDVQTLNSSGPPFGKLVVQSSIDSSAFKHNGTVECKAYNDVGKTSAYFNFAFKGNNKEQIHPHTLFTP

B1: DOM28m-73 (protein)
chain: EVQLLESGGGLVQPGGSLRLSCAASGFTFKHYSMNWVRQAPGKGLEWVSRISPSGVSTYYADSVKGRFTISRDNSKNTLYLQMNSLRAEDTAVYYCAKIMNSHKADEFDYWGQGTLVTVSS
In general, Kd refers to the concentration at which binding is half-saturated. In the case of B1, the Kd in assay [1] and in assay [2] was 9000 nM throughout.

B2: DOM28h-94 (protein)
VH: EVQLLESGGGLVQPGGSLRLSCAASGFTFFPYAMGWVRQAPGKGLEWVSFISGRGDTTYYADSVKGRFTISRDNSKNTLYLQMNSLRAEDTAVYYCAKTATSDLWNFDYWGQGTLVTVSS
B2: the equilibrium dissociation constant (Kd) in assay [3] and in assay [4] was 1500 nM each time.

B3: DOM28h-94-12 (protein)
VH: EVQPLESGGGLVQPGGSLRLSCAVSGFTVFPYAMGWVRQAPGKGLEWVSFISGRGDTTYYADSVKGRFTISRDNSKNTLYLQMNSLRAEDTAVYYCAKTATSDLWNFDYRGQGTLVTVSS
Take B3: the Kd in assay [5] turned out to be 11 nM.

B4: DOM28h-94-10 (protein)
VH: EVQLLESGGGLVQPGGSLRLSCAASGFTVFPYAMGWVRQAPGKGLEWVSFISGRGDTTYYADSVKGRFTISRDNSKNTLYLQMNSLRAEDTAVYYCAKTATSDLWNFDYRGQGTLVTVSS
On to B4, for which the dissociation constant Kd in assay [5] amounted to 112 nM.

B5: DOM28m-23 (protein)
VH: EVRLLESGGGLVQPGGSLRLSCAASGFTFRDYVMVWVRQAPGKGLEWVSAIAPTGGYTYYADSVKGRFTISRDNSKNTLYLQMNSLRAEDTAVYYCAKSLRTWLSEDLPFDYWGQGTLVTVSS
For B5, the Kd stood at 2800 nM in assay [3], 22000 nM in assay [1] and 22000 nM in assay [2].

B6: DOM28m-7 (protein)
VH: EVQLLESGGGLVQPGGSLRLSCAASGFTFSNYAMGWVRQAPGKGLEWVSSISSSGFATYYADSVKGRFTISRDNSKNTLYLQMNSLRAEDTAVYYCAKSESRTFKAFDYWGQGTLVTVSS
As for B6, the Kd in assay [1] was determined as 3000 nM; in assay [2] it was 4000 nM.

B7: DMS5052 (chimeric MLC mAb-cKIT dAb, DOM28m-007) (bispecific antibody, not shown: a dimerising Fc or GST)
heavy (part 1 of 2): QVQLQQSGAELASPGASVKLSCKASGYTFTTYWIHWVKQRPGQGLEWIGAIYPGDGDTRYTQNFKDKATLTADSSSSTAYMQLSSLASEDSAVFYCAREGTPPFTTATFAMAYWGQGTSVTVSS
heavy (part 2 of 2): STGEVQLLESGGGLVQPGGSLRLSCAASGFTFSNYAMGWVRQAPGKGLEWVSSISSSGFATYYADSVKGRFTISRDNSKNTLYLQMNSLRAEDTAVYYCAKSESRTFKAFDYWGQGTLVTVSS
light: DIVMSQSPSSLAVSAGDKVTMSCKSSQSLLYSRTRKNYLAWYQQKPGQSPKLLIYWASTRQSGVPDRFTGSGSGTDFTLTISSVQAEDLAVYYCKQSYNLFTFGSGTKLEIKR
For the molecule B7, the values for the Kd in assay [1], in assay [6] and in assay [7] were 80 nM, 36 nM and 27 nM, respectively.

B8: DMS5060 (chimeric MLC mAb-cKIT dAb, DOM28h-094) (bispecific antibody, not shown: a dimerising Fc or GST)
heavy (part 1 of 2): QVQLQQSGAELASPGASVKLSCKASGYTFTTYWIHWVKQRPGQGLEWIGAIYPGDGDTRYTQNFKDKATLTADSSSSTAYMQLSSLASEDSAVFYCAREGTPPFTTATFAMAYWGQGTSVTVSS
heavy (part 2 of 2): STGEVQLLESGGGLVQPGGSLRLSCAASGFTFFPYAMGWVRQAPGKGLEWVSFISGRGDTTYYADSVKGRFTISRDNSKNTLYLQMNSLRAEDTAVYYCAKTATSDLWNFDYWGQGTLVTVSS
light: DIVMSQSPSSLAVSAGDKVTMSCKSSQSLLYSRTRKNYLAWYQQKPGQSPKLLIYWASTRQSGVPDRFTGSGSGTDFTLTISSVQAEDLAVYYCKQSYNLFTFGSGTKLEIKR
In the case of B8, the Kd was 14 nM in assay [1], 13 nM in assay [6] and 36 nM in assay [7].
